From US20130005646A1 (Novo Nordisk, published 2013) come the findings set out here.

Starred links: 1 amine or outer side, 2 acyl side, 3 side chain; linkers in the order of their positions; H or OH if unused. Positions of bridges follow the written chain, without caps; N, C: chain ends. *: point of attachment. C20 diacid = O=C(O)CCCCCCCCCCCCCCCCCCC(=O)*; γGlu = O=C(O)[C@H](CCC(=O)[*:2])N[*:1]

What all share (assay): cell-based or functional assay
Experiment [1] concerns the target T1, human amylin 3(a) receptor (human calcitonin receptor + RAMP-3) (human, UniProt P30988 25-474; O60896 24-148).
T1 sequence (looked up) 1: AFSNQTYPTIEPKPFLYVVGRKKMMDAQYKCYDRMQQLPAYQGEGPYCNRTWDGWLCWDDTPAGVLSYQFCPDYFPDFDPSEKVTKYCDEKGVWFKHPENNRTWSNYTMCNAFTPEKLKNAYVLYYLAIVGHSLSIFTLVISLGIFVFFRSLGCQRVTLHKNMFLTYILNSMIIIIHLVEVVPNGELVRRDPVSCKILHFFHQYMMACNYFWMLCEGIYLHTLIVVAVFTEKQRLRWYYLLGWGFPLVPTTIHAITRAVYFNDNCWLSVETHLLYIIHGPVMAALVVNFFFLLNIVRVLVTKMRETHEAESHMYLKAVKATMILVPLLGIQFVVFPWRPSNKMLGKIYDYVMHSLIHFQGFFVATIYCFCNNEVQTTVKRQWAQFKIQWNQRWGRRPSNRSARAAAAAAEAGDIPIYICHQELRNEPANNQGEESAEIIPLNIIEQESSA
T1 sequence (looked up) 2: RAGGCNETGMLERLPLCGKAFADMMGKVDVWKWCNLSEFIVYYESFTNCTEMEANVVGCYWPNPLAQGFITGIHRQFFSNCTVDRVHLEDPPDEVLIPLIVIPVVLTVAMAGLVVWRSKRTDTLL

Experiment [2] deals with T2, human calcitonin (a) receptor (human, UniProt P30988 25-474).
T2 sequence (looked up): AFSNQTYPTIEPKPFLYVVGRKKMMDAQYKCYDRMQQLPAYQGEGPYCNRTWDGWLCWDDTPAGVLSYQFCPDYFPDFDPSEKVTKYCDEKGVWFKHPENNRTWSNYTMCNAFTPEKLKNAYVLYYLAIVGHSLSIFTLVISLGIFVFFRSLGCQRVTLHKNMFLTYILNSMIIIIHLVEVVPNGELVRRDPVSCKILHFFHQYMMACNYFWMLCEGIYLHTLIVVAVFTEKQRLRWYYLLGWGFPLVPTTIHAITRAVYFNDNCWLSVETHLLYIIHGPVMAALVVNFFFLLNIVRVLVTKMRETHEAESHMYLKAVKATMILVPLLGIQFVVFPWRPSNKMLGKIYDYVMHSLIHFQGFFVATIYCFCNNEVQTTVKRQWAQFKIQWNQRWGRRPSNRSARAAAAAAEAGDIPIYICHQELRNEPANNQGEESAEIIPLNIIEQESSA

For experiment [3], the target named is T3, rat amylin 3(a) receptor (rat calcitonin(a) receptor + rat RAMP3) (rat, UniProt P32214 25-516; Q9JJ73 23-147).
T3 sequence (looked up) 1: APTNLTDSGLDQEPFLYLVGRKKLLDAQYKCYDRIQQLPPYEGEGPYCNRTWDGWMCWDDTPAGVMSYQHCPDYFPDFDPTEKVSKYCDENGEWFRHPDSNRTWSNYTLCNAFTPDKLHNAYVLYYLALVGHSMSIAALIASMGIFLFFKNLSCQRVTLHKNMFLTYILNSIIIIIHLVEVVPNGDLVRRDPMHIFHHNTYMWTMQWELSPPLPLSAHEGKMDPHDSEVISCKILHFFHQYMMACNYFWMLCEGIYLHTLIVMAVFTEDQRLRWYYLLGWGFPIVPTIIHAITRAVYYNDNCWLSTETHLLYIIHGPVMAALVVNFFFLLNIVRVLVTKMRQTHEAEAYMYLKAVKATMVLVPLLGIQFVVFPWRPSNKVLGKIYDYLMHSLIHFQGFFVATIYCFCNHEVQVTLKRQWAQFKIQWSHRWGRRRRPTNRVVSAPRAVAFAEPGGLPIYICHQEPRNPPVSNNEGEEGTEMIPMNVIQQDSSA
T3 sequence (looked up) 2: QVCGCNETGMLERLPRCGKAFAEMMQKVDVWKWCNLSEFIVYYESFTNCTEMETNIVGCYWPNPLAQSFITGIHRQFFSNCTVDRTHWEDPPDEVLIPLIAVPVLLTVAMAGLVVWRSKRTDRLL

The target in experiment [4] is T4, rat calcitonin (a) receptor (rat, UniProt P32214 25-516).
T4 sequence (looked up): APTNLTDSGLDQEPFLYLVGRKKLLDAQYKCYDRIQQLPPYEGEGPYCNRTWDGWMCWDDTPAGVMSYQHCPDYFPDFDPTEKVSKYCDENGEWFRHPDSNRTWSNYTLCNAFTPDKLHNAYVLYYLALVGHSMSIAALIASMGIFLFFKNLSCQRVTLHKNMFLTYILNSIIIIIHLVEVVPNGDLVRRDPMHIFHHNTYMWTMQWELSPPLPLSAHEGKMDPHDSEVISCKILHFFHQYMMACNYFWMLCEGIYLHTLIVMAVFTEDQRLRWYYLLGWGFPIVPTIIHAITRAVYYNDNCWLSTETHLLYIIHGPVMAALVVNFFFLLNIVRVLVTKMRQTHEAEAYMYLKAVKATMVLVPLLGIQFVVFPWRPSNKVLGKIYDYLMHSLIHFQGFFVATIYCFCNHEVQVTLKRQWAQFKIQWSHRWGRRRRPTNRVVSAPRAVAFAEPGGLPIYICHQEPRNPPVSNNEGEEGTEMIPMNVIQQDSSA

B1: N-alpha-[(S)-4-Carboxy-4-(19-carboxynonadecanoylamino)butyryl]-His-His-[His1,Glu14,Arg17]-pramlintide (peptide)
peptide: {C20 diacid-γGlu}-HHHCNTATCATQRLAEFLRHSSNNFGPILPPTNVGSNTY-NH2
modifications: disulfide 4-9
SMILES: CC[C@H](C)[C@H](NC(=O)[C@@H]1CCCN1C(=O)CNC(=O)[C@H](Cc1ccccc1)NC(=O)[C@H](CC(N)=O)NC(=O)[C@H](CC(N)=O)NC(=O)[C@H](CO)NC(=O)[C@H](CO)NC(=O)[C@H](Cc1c[nH]cn1)NC(=O)[C@H](CCCNC(=N)N)NC(=O)[C@H](CC(C)C)NC(=O)[C@H](Cc1ccccc1)NC(=O)[C@H](CCC(=O)O)NC(=O)[C@H](C)NC(=O)[C@H](CC(C)C)NC(=O)[C@H](CCCNC(=N)N)NC(=O)[C@H](CCC(N)=O)NC(=O)[C@@H](NC(=O)[C@H](C)NC(=O)[C@@H]1CSSC[C@H](NC(=O)[C@H](Cc2c[nH]cn2)NC(=O)[C@H](Cc2c[nH]cn2)NC(=O)[C@H](Cc2c[nH]cn2)NC(=O)CC[C@H](NC(=O)CCCCCCCCCCCCCCCCCCC(=O)O)C(=O)O)C(=O)N[C@@H](CC(N)=O)C(=O)N[C@@H]([C@@H](C)O)C(=O)N[C@@H](C)C(=O)N[C@@H]([C@@H](C)O)C(=O)N1)[C@@H](C)O)C(=O)N[C@@H](CC(C)C)C(=O)N1CCC[C@H]1C(=O)N1CCC[C@H]1C(=O)N[C@H](C(=O)N[C@@H](CC(N)=O)C(=O)N[C@H](C(=O)NCC(=O)N[C@@H](CO)C(=O)N[C@@H](CC(N)=O)C(=O)N[C@H](C(=O)N[C@@H](Cc1ccc(O)cc1)C(N)=O)[C@@H](C)O)C(C)C)[C@@H](C)O
On to B1, for which the “Amylin receptor human EC50” value in experiment [1] stood at 0.0775 nM. For the same molecule, the “CTa receptor human EC50” value in experiment [2] is 0.409 nM. For the same molecule, the “Amylin receptor rat EC50” value in experiment [3] was determined as 0.082 nM. In addition, the “CTa receptor rat EC50” value in experiment [4] was 6.76 nM.

B2: N-alpha-[(S)-4-Carboxy-4-(19-carboxynonadecanoylamino)butyryl]-[Glu1,Glu14,His17,Arg18,Pro37]-pramlintide (peptide)
peptide: {C20 diacid-γGlu}-ECNTATCATQRLAEFLHRSSNNFGPILPPTNVGSNTP-NH2
modifications: disulfide 2-7
SMILES: CC[C@H](C)[C@H](NC(=O)[C@@H]1CCCN1C(=O)CNC(=O)[C@H](Cc1ccccc1)NC(=O)[C@H](CC(N)=O)NC(=O)[C@H](CC(N)=O)NC(=O)[C@H](CO)NC(=O)[C@H](CO)NC(=O)[C@H](CCCNC(=N)N)NC(=O)[C@H](Cc1c[nH]cn1)NC(=O)[C@H](CC(C)C)NC(=O)[C@H](Cc1ccccc1)NC(=O)[C@H](CCC(=O)O)NC(=O)[C@H](C)NC(=O)[C@H](CC(C)C)NC(=O)[C@H](CCCNC(=N)N)NC(=O)[C@H](CCC(N)=O)NC(=O)[C@@H](NC(=O)[C@H](C)NC(=O)[C@@H]1CSSC[C@H](NC(=O)[C@H](CCC(=O)O)NC(=O)CC[C@H](NC(=O)CCCCCCCCCCCCCCCCCCC(=O)O)C(=O)O)C(=O)N[C@@H](CC(N)=O)C(=O)N[C@@H]([C@@H](C)O)C(=O)N[C@@H](C)C(=O)N[C@@H]([C@@H](C)O)C(=O)N1)[C@@H](C)O)C(=O)N[C@@H](CC(C)C)C(=O)N1CCC[C@H]1C(=O)N1CCC[C@H]1C(=O)N[C@H](C(=O)N[C@@H](CC(N)=O)C(=O)N[C@H](C(=O)NCC(=O)N[C@@H](CO)C(=O)N[C@@H](CC(N)=O)C(=O)N[C@H](C(=O)N1CCC[C@H]1C(N)=O)[C@@H](C)O)C(C)C)[C@@H](C)O
Take B2: in experiment [1], the “Amylin receptor human EC50” value was found to be 0.0823 nM. The “CTa receptor human EC50” value in experiment [2] stood at 0.0864 nM. Moreover, the “Amylin receptor rat EC50” value in experiment [3] was determined as 0.374 nM. Further, the “CTa receptor rat EC50” value in experiment [4] came out at 0.806 nM.

B3: N-alpha-[(S)-4-Carboxy-4-(19-carboxynonadecanoylamino)butyryl]-His-His-[His1,Glu14,His17]-pramlintide (peptide)
peptide: {C20 diacid-γGlu}-HHHCNTATCATQRLAEFLHHSSNNFGPILPPTNVGSNTY-NH2
modifications: disulfide 4-9
SMILES: CC[C@H](C)[C@H](NC(=O)[C@@H]1CCCN1C(=O)CNC(=O)[C@H](Cc1ccccc1)NC(=O)[C@H](CC(N)=O)NC(=O)[C@H](CC(N)=O)NC(=O)[C@H](CO)NC(=O)[C@H](CO)NC(=O)[C@H](Cc1c[nH]cn1)NC(=O)[C@H](Cc1c[nH]cn1)NC(=O)[C@H](CC(C)C)NC(=O)[C@H](Cc1ccccc1)NC(=O)[C@H](CCC(=O)O)NC(=O)[C@H](C)NC(=O)[C@H](CC(C)C)NC(=O)[C@H](CCCNC(=N)N)NC(=O)[C@H](CCC(N)=O)NC(=O)[C@@H](NC(=O)[C@H](C)NC(=O)[C@@H]1CSSC[C@H](NC(=O)[C@H](Cc2c[nH]cn2)NC(=O)[C@H](Cc2c[nH]cn2)NC(=O)[C@H](Cc2c[nH]cn2)NC(=O)CC[C@H](NC(=O)CCCCCCCCCCCCCCCCCCC(=O)O)C(=O)O)C(=O)N[C@@H](CC(N)=O)C(=O)N[C@@H]([C@@H](C)O)C(=O)N[C@@H](C)C(=O)N[C@@H]([C@@H](C)O)C(=O)N1)[C@@H](C)O)C(=O)N[C@@H](CC(C)C)C(=O)N1CCC[C@H]1C(=O)N1CCC[C@H]1C(=O)N[C@H](C(=O)N[C@@H](CC(N)=O)C(=O)N[C@H](C(=O)NCC(=O)N[C@@H](CO)C(=O)N[C@@H](CC(N)=O)C(=O)N[C@H](C(=O)N[C@@H](Cc1ccc(O)cc1)C(N)=O)[C@@H](C)O)C(C)C)[C@@H](C)O
For B3, the “Amylin receptor human EC50” value in experiment [1] is 0.0853 nM. In experiment [2], the “CTa receptor human EC50” value was 0.208 nM. The “Amylin receptor rat EC50” value in experiment [3] is 0.0885 nM. Further, the “CTa receptor rat EC50” value in experiment [4] was 0.962 nM.
